Source: US20100111943A1 (MEDICAL COLLEGE OF GEORGIA RESEARCH INSTITUTE, published 2010)

Tests used:
Test in all cases: co-IP: anti-FLAG M2 immunoprecipitates immunoblotted with anti-CHIP
[1] = target: T1, FLAG (F)-tagged hsp90α (wild type) (UniProt P07900 1-732)
T1 construct: Expressed from a plasmid described in cited literature, or translated in vitro; also called F-hsp90α; F-hsp90; not shown: FLAG tag
Method: (§1) Following culture in the plates for 24 hours, cells were transfected by Lipofectamine Plus following the protocol provided by Invitrogen (Carlsbad, Calif.). Transfected cells were cultured in full-medium containing drugs dissolved in DMSO or vehicle for 24 hours. Cellular extracts were prepared by directly adding lysis buffer (25 mM Tris-phosphate, pH 7.8, 2 mM DTT, 2 mM 1,2-diaminocyclohexane-N′,N′,N′,N′-tetraacetic acid, 10% glycerol, 0.2% Triton X-100) to the cells on ice. For immuno-precipitations (IP), 2×10⁶ cells in 100 mm dishes were transfected and/or treated as described above. Cellular extracts were prepared and immunoprecipitation performed as described 24. For immunoblotting, cellular extracts or immunoprecipitates were separated on SDS-PAGE, transferred to a nitrocellulose membrane, probed with antibodies, and visualized with enhanced chemiluminescence, as described (Chen, Z., et al., Mol. Pharmacol., 69:1527-33 (2006)).
(§2) The mutants were also analyzed for their ability to bind ATP, as well as for binding to co-chaperones, client proteins and the biotinylated (B) GA (geldanamycin) (Kamal, A., et al., Nature., 425:407-10 (2003)). Precipitates from the mixture of cell lysates containing hsp90α and ATP-sepharose were analyzed with anti-F antibody.

[2] = target: T2, FLAG (F)-tagged hsp90α K100R mutant (UniProt P07900 1-732)
T2 construct: Made by site-directed mutagenesis, expressed by transfection; also called K/R mutant at K100; acetylation-deficient mutant; not shown: FLAG tag
Method: as §1, §2

[3] = target: T3, FLAG (F)-tagged hsp90α K292R mutant (UniProt P07900 1-732)
T3 construct: Made by site-directed mutagenesis, expressed by transfection; also called K/R mutant at K292; acetylation-deficient mutant; not shown: FLAG tag
Method: as §1, §2

[4] = target: T4, FLAG (F)-tagged hsp90α K327R mutant (UniProt P07900 1-732)
T4 construct: Made by site-directed mutagenesis, expressed by transfection; also called K/R mutant at K327; acetylation-deficient mutant; not shown: FLAG tag
Method: as §1, §2

[5] = target: T5, FLAG (F)-tagged hsp90α K478R mutant (UniProt P07900 1-732)
T5 construct: Made by site-directed mutagenesis, expressed by transfection; also called K/R mutant at K478; acetylation-deficient mutant; not shown: FLAG tag
Method: as §1, §2

[6] = target: T6, FLAG (F)-tagged hsp90α K546R mutant (UniProt P07900 1-732)
T6 construct: Made by site-directed mutagenesis, expressed by transfection; also called K/R mutant at K546; acetylation-deficient mutant; not shown: FLAG tag
Method: as §1, §2

[7] = target: T7, FLAG (F)-tagged hsp90α K558R mutant (UniProt P07900 1-732)
T7 construct: Made by site-directed mutagenesis, expressed by transfection; also called K/R mutant at K558; acetylation-deficient mutant; not shown: FLAG tag
Method: as §1, §2

[8] = target: T8, FLAG (F)-tagged hsp90α K292Q mutant (UniProt P07900 1-732)
T8 construct: Made by site-directed mutagenesis, expressed by transfection; also called K/Q mutant at K292; acetylation-mimetic mutant; not shown: FLAG tag
Method: as §1, §2

[9] = target: T9, FLAG (F)-tagged hsp90α K69R mutant (UniProt P07900 1-732)
T9 construct: Made by site-directed mutagenesis, expressed by transfection; also called K/R mutant at K69; acetylation-deficient mutant; not shown: FLAG tag
Method: as §1, §2

binding result [1]: binds
binding result [2]: binds
binding result [3]: binds
binding result [4]: binds
binding result [5]: binds
binding result [6]: binds
binding result [7]: binds
binding result [8]: binds
binding result [9]: binds
B1: CHIP (other, UniProt Q9UNE7 1-303, looked up)
chain: MKGKEEKEGGARLGAGGGSPEKSPSAQELKEQGNRLFVGRKYPEAAACYGRAITRNPLVAVYYTNRALCYLKMQQHEQALADCRRALELDGQSVKAHFFLGQCQLEMESYDEAIANLQRAYSLAKEQRLNFGDDIPSALRIAKKKRWNSIEERRIHQESELHSYLSRLIAAERERELEECQRNHEGDEDDSHVRAQQACIEAKHDKYMADMDELFSQVDEKRKKRDIPDYLCGKISFELMREPCITPSGITYDRKDIEEHLQRVGHFDPVTRSPLTQEQLIPNLAMKEVIDAFISENGWVEDY
notes: Endogenous protein co-immunoprecipitated from cell lysates and detected with anti-CHIP
